Results taken from article PMC5824745 (The Journal of Neuroscience, 2018).

Assays:
[1] = target: T1, eukaryotic Initiation Factor 4E (eIF4E), wild type (mouse (endogenous in forebrain), UniProt P63073 1-217); test: pull-down; cap-column pulldown: 500 ug forebrain lysate protein with 50 ul m7GDP agarose in buffer C (50 mM MOPS-KOH pH 7.4, 100 mM NaCl, 50 mM NaF, 0.5 mM EDTA, 0.5 mM EGTA, 0.1 mM GTP), 90 min at 4 C; eIF4E held by its ligand m7GDP; cap-bound fraction immunoblotted and quantified, normalised to input; settings: partners not purified
T1 construct: also called WT; source: endogenous, WT mouse forebrain lysate

[2] = target: T2, eIF4E Ser209Ala (knock-in, 4Eki mice) (mouse (endogenous in forebrain), UniProt P63073 1-217, Ser209Ala); test: as above; settings: partners not purified
T2 construct: The mice are described in Gkogkas et al., 2014; also called Ser209Ala mutant; source: endogenous (knock-in allele), 4Eki mouse forebrain lysate

Sequence of Gapdh (P16858 whole entry): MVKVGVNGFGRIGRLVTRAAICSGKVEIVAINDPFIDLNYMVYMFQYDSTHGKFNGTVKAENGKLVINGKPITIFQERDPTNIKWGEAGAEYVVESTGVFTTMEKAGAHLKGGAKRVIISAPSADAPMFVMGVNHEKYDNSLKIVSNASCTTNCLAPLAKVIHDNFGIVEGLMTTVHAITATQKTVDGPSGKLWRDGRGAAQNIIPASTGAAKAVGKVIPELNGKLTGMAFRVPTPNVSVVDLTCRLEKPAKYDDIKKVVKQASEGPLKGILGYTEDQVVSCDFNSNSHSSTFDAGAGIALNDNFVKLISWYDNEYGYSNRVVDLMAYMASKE

Row | cap-bound protein (arbitrary units, normalised to input) [1] [arbitrary units] | cap-bound protein (arbitrary units, normalised to input) [2] [arbitrary units] | Binder
1 | 1 | – | Eprs (natural protein, mouse (endogenous in forebrain), UniProt Q8CGC7 1-1512, looked up, Eprs (glutamyl-prolyl-tRNA synthetase), mouse, endogenous in forebrain; also called GAIT complex protein; source: endogenous, mouse forebrain lysate (WT or 4Eki)) MAALCLTVNAGNPPLEALLAVEHVKGDVSISVEEGKENLLRVSETVAFTDVNSILRYLARIATTSGLYGTNLMEHTEIDHWLEFSATKLSSCDRLTSAINELNHCLSLRTYLVGNSLTLADLCVWATLKGSAAWQEHLKQNKTLVHVKRWFGFLEAQQAFRSVGTKWDVSGNRATVAPDKKQDVGKFVELPGAEMGKVTVRFPPEASGYLHIGHAKAALLNQHYQVNFKGKLIMRFDDTNPEKEKEDFEKVILEDVAMLHIKPDQFTYTSDHFETIMKYAEKLIQEGKAYVDDTPAEQMKAEREQRTESKHRKNSVEKNLQMWEEMKKGSQFGQSCCLRAKIDMSSNNGCMRDPTLYRCKIQPHPRTGNKYNVYPTYDFACPIVDSIEGVTHALRTTEYHDRDEQFYWIIEALGIRKPYIWEYSRLNLNNTVLSKRKLTWFVNEGLVDGWDDPRFPTVRGVLRRGMTVEGLKQFIAAQGSSRSVVNMEWDKIWAFNKKVIDPVAPRYVALLKKEVVPVNVLDAQEEMKEVARHPKNPDVGLKPVWYSPKVFIEGADAETFSEGEMVTFINWGNINITKIHKNADGKITSLDAKLNLENKDYKKTTKITWLAESTHALSIPAVCVTYEHLITKPVLGKDEDFKQYINKDSKHEELMLGDPCLKDLKKGDIIQLQRRGFFICDQPYEPVSPYSCREAPCILIYIPDGHTKEMPTSGSKEKTKVEISKKETSSAPKERPAPAVSSTCATAEDSSVLYSRVAVQGDVVRELKAKKAPKEDIDAAVKQLLTLKAEYKEKTGQEYKPGNPSAAAVQTVSTKSSSNTVESTSLYNKVAAQGEVVRKLKAEKAPKAKVTEAVECLLSLKAEYKEKTGKDYVPGQPPASQNSHSNPVSNAQPAGAEKPEAKVLFDRVACQGEVVRKLKAEKASKDQVDSAVQELLQLKAQYKSLTGIEYKPVSATGAEDKDKKKKEKENKSEKQNKPQKQNDGQGKDSSKSQGSGLSSGGAGEGQGPKKQTRLGLEAKKEENLAEWYSQVITKSEMIEYYDVSGCYILRPWSYSIWESIKDFFDAEIKKLGVENCYFPIFVSQAALEKEKNHIEDFAPEVAWVTRSGKTELAEPIAIRPTSETVMYPAYAKWVQSHRDLPVRLNQWCNVVRWEFKHPQPFLRTREFLWQEGHSAFATFEEAADEVLQILELYARVYEELLAIPVVRGRKTEKEKFAGGDYTTTIEAFISASGRAIQGATSHHLGQNFSKMCEIVFEDPKTPGEKQFAYQCSWGLTTRTIGVMVMVHGDNMGLVLPPRVASVQVVVIPCGITNALSEEDREALMAKCNEYRRRLLGANIRVRVDLRDNYSPGWKFNHWELKGVPVRLEVGPRDMKSCQFVAVRRDTGEKLTIAEKEAEAKLEKVLEDIQLNLFTRASEDLKTHMVVSNTLEDFQKVLDAGKVAQIPFCGEIDCEDWIKKMTARDQDVEPGAPSMGAKSLCIPFNPLCELQPGAMCVCGKNPAKFYTLFGRSY
2 | – | 0.775 | Gapdh (natural protein, Gapdh, mouse, endogenous in forebrain; also called GAIT complex protein; source: endogenous, mouse forebrain lysate (WT or 4Eki)) not shown
3 | 1 | 0.83 | eIF4G (natural protein, mouse (endogenous in forebrain), UniProt Q6NZJ6 1-1600, looked up, eIF4G, mouse, endogenous in forebrain; detected with an antibody against eIF4G1 (Cell Signaling Technology 2498); also called eIF4G1; scaffolding protein of eIF4F; source: endogenous, mouse forebrain lysate (WT or 4Eki)) MNKAPQPTGPPPARSPGLPQPAFPPGQTAPVVFSTPQATQMNTPSQPRQGGFRSLQHFYPSRAQPPSSAASRVQSAAPARPGPAPHVYPAGSQVMMIPSQISYSASQGAYYIPGQGRSTYVVPTQQYPVQPGAPGFYPGASPTEFGTYAGAYYPAQGVQQFPASVAPAPVLMNQPPQIAPKRERKTIRIRDPNQGGKDITEEIMSGARTASTPTPPQTGGSLEPQPNGESPQVAVIIRPDDRSQGAAIGGRPGLPGPEHSPGTESQPSSPSPTPSPPPILEPGSESNLGVLSIPGDTMTTGMIPMSVEESTPISCETGEPYCLSPEPTLAEPILEVEVTLSKPIPESEFSSSPLQVSTALVPHKVETHEPNGVIPSEDLEPEVESSTEPAPPPLSPCASESLVPIAPTAQPEELLNGAPSPPAVDLSPVSEPEEQAKKVSSAALASILSPAPPVAPSDTSPAQEEEMEEDDDDEEGGEAESEKGGEDVPLDSTPVPAQLSQNLEVAAATQVAVSVPKRRRKIKELNKKEAVGDLLDAFKEVDPAVPEVENQPPTGSNPSPESEGSMVPTQPEETEETWDSKEDKIHNAENIQPGEQKYEYKSDQWKPLNLEEKKRYDREFLLGFQFIFASMQKPEGLPHITDVVLDKANKTPLRQLDPSRLPGINCGPDFTPSFANLGRPALSNRGPPRGGPGGELPRGPAGLGPRRSQQGPRKETRKIISSVIMTEDIKLNKAEKAWKPSSKRTAADKDRGEEDADGSKTQDLFRRVRSILNKLTPQMFQQLMKQVTQLAIDTEERLKGVIDLIFEKAISEPNFSVAYANMCRCLMALKVPTTEKPTVTVNFRKLLLNRCQKEFEKDKDDDEVFEKKQKEMDEAATAEERGRLKEELEEARDIARRRSLGNIKFIGELFKLKMLTEAIMHDCVVKLLKNHDEESLECLCRLLTTIGKDLDFAKAKPRMDQYFNQMEKIIKEKKTSSRIRFMLQDVLDLRQSNWVPRRGDQGPKTIDQIHKEAEMEEHREHIKVQQLMAKGSDKRRGGPPGPPINRGLPLVDDGGWNTVPISKGSRPIDTSRLTKITKPGSIDSNNQLFAPGGRLSWGKGSSGGSGAKPSDTASEATRPATLNRFSALQQTLPAENTDNRRVVQRSSLSRERGEKAGDRGDRLERSERGGDRGDRLDRARTPATKRSFSKEVEERSRERPSQPEGLRKAASLTEDRGRDPVKREATLPPVSPPKAALSVDEVEKKSKAIIEEYLHLNDMKEAVQCVQELASPSLLFIFVRLGIESTLERSTIAREHMGRLLHQLLCAGHLSTAQYYQGLYETLELAEDMEIDIPHVWLYLAELITPILQEDGVPMGELFREITKPLRPMGKATSLLLEILGLLCKSMGPKKVGMLWREAGLSWREFLAEGQDVGSFVAEKKVEYTLGEESEAPGQRTLAFEELRRQLEKLLKDGGSNQRVFDWIDANLNEQQIASNTLVRALMTTVCYSAIIFETPLRVDVQVLKVRARLLQKYLCDEQKELQALYALQALVVTLEQPANLLRMFFDALYDEDVVKEDAFYSWESSKDPAEQQGKGVALKSVTAFFNWLREAEDEESDHN
